# Positions count from the first letter of the chain named.
# T1: PLE2 Int (large serine recombinase) (Vibrio cholerae PLE2 (satellite), UniProt M1T311 1-630)
# T1 sequence: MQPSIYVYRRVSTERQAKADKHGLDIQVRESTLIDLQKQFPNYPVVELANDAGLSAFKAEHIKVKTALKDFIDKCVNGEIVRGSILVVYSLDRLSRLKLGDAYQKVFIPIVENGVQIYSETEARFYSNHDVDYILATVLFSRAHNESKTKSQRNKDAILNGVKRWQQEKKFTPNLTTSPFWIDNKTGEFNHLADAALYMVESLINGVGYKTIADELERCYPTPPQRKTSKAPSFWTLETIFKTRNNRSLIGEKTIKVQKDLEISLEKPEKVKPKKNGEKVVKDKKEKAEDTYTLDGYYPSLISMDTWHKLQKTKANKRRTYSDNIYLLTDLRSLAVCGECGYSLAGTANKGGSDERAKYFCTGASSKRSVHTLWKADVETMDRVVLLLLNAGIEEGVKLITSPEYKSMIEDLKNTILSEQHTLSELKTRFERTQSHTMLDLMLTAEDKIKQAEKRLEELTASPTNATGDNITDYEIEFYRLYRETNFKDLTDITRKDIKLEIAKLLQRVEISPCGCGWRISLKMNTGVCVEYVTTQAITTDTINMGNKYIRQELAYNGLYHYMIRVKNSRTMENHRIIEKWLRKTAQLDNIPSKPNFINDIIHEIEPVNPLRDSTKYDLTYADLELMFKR
# T2: PLE2 IntS12A (Vibrio cholerae PLE2 (satellite), UniProt M1T311 1-630, S12A)
# T2 sequence: T1 sequence with S12A
# B1: PLE2 attP EMSA probe (MN262/MN263) (dsDNA)
# DNA 1: GATAGGTCATTTTATACTTCTGACAAAGTTACATATGACTTGCATTAGTG
# DNA 2: CACTAATGCAAGTCATATGTAACTTTGTCAGAAGTATAAAATGACCTATC
# Legend:
# [1] = biological target: T1, PLE2 Int (large serine recombinase); assay: EMSA
# PLE2 IntS12A = biological target: T2, PLE2 IntS12A; assay: EMSA
binder,measurement,setting,value
B1,binding result,[1],binds
same,binding result,PLE2 IntS12A,binds
